From the supplement of paper PMC10065799, “High-throughput profiling of sequence recognition by tyrosine kinases and SH2 domains using bacterial peptide display” (eLife, 2023)

What was measured:
AncSZ = experiment: phosphorylation enrichment, bacterial display (enrichment ratio); higher = better substrate or ligand; peptides without Tyr show the background
EPHB1 = EPHB1 (UniProt P54762); experiment: as above
EPHB2 = EPHB2 (UniProt P29323); experiment: as above
FGFR1 = FGFR1 (UniProt P11362); experiment: as above
FGFR3 = FGFR3 (UniProt P22607); experiment: as above
Fer (mouse) = experiment: as above
Fes = Fes (UniProt P07332); experiment: as above
Fyn = Fyn (UniProt P06241); experiment: as above
Hck = Hck (UniProt P08631); experiment: as above
Jak2 = Jak2 (UniProt O60674); experiment: as above
MERTK = MERTK (UniProt Q12866); experiment: as above
c-Abl (mouse) = experiment: as above
c-Src = experiment: as above
Grb2 SH2 = Grb2 SH2 (UniProt P62993); experiment: SH2 binding enrichment of the phosphorylated peptide, bacterial display (enrichment ratio); higher = better substrate or ligand; peptides without Tyr show the background
SHP2-C SH2 = experiment: as above
c-Src SH2 = experiment: as above
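Throughout, for SH2 binding enrichment of the phosphorylated peptide, bacterial display: peptide library displayed on the E. coli surface as eCPX fusions, selected cells deep-sequenced, score is each peptide's frequency after selection divided by its frequency in the input.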
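Throughout, for phosphorylation enrichment, bacterial display: 11-residue human phosphosite peptides and single-mutation variants displayed on the E. coli surface, counted by deep sequencing, each peptide's frequency after selection divided by its frequency in the unselected input library; frequency after pTyr selection over input frequency; kinase dosed for 20-30% of maximal phosphorylation in three min.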

Sequence of Jak2 (O60674 whole entry, looked up): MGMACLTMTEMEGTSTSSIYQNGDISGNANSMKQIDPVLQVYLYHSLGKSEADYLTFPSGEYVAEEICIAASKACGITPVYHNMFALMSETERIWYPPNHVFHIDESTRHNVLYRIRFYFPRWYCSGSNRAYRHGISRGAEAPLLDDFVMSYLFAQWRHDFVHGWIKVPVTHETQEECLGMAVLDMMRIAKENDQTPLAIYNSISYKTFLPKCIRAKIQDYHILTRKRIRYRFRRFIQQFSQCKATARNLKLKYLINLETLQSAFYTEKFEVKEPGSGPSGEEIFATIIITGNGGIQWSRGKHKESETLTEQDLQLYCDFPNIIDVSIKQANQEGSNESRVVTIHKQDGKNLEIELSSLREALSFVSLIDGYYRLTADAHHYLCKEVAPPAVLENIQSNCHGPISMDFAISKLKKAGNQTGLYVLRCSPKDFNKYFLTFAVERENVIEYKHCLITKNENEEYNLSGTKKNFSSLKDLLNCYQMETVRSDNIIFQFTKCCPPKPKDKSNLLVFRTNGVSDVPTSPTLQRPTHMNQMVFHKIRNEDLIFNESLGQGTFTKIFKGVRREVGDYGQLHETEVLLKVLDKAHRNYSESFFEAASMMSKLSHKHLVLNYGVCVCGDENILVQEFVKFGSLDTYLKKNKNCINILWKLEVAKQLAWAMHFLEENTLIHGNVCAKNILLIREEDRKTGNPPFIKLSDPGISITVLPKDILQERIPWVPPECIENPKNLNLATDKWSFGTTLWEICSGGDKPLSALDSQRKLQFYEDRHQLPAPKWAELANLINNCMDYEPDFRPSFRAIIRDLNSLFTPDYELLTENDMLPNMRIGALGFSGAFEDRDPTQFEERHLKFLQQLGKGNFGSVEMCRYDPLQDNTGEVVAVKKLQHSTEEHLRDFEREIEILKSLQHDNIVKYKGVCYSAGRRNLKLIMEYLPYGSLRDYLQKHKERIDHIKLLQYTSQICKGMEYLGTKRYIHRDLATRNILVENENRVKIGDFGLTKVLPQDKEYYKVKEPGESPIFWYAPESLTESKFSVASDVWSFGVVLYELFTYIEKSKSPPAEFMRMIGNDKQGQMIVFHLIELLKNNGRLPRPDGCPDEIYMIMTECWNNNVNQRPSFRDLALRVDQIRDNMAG
Sequence of EPHB1 (P54762 whole entry, looked up): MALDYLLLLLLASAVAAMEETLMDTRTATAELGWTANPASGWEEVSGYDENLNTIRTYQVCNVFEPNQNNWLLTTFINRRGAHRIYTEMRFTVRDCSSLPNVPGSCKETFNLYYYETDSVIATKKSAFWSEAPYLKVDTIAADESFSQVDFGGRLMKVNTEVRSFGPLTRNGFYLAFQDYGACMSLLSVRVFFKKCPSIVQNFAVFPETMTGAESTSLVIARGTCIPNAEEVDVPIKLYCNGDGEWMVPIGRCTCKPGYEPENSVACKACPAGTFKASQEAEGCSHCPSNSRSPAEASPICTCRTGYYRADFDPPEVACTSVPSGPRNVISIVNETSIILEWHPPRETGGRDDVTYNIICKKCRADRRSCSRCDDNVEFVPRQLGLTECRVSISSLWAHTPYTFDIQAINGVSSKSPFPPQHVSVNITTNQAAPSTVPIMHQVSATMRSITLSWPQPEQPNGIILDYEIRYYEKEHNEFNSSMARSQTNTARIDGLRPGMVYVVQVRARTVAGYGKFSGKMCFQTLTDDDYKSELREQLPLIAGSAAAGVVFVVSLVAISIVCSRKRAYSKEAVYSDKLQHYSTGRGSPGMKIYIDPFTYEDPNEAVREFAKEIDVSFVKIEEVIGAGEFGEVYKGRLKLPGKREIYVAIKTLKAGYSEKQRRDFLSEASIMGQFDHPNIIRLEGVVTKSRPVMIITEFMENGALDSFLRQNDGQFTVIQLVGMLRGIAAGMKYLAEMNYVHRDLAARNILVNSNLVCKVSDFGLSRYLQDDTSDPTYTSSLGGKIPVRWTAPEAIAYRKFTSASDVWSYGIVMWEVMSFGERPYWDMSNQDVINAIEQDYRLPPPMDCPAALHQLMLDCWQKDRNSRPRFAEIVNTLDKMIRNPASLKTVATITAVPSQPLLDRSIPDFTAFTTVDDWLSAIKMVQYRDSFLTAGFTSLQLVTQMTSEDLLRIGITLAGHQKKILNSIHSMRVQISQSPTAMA
Sequence of FGFR1 (P11362 whole entry, looked up): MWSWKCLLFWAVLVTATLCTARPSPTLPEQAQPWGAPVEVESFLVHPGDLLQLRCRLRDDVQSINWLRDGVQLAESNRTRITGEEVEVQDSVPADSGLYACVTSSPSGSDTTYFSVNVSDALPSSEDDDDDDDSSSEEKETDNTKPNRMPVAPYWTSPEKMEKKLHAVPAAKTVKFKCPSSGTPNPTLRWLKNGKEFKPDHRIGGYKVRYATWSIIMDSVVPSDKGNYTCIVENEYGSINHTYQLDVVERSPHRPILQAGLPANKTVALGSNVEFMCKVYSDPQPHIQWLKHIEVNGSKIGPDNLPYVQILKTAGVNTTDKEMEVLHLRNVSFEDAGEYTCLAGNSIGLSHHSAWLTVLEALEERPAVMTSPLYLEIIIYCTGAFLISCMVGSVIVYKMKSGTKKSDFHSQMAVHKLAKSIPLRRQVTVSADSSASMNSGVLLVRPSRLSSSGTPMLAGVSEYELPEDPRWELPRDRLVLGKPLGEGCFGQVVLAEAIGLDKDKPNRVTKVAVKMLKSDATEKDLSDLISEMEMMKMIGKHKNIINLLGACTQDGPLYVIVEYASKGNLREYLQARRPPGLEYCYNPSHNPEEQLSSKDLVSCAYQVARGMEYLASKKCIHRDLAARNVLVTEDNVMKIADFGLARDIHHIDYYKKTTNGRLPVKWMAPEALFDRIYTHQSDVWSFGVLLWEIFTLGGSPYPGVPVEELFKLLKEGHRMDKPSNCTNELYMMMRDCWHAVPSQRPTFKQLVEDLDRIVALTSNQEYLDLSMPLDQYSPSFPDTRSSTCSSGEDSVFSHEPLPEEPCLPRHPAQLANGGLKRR
Sequence of EPHB2 (P29323 whole entry, looked up): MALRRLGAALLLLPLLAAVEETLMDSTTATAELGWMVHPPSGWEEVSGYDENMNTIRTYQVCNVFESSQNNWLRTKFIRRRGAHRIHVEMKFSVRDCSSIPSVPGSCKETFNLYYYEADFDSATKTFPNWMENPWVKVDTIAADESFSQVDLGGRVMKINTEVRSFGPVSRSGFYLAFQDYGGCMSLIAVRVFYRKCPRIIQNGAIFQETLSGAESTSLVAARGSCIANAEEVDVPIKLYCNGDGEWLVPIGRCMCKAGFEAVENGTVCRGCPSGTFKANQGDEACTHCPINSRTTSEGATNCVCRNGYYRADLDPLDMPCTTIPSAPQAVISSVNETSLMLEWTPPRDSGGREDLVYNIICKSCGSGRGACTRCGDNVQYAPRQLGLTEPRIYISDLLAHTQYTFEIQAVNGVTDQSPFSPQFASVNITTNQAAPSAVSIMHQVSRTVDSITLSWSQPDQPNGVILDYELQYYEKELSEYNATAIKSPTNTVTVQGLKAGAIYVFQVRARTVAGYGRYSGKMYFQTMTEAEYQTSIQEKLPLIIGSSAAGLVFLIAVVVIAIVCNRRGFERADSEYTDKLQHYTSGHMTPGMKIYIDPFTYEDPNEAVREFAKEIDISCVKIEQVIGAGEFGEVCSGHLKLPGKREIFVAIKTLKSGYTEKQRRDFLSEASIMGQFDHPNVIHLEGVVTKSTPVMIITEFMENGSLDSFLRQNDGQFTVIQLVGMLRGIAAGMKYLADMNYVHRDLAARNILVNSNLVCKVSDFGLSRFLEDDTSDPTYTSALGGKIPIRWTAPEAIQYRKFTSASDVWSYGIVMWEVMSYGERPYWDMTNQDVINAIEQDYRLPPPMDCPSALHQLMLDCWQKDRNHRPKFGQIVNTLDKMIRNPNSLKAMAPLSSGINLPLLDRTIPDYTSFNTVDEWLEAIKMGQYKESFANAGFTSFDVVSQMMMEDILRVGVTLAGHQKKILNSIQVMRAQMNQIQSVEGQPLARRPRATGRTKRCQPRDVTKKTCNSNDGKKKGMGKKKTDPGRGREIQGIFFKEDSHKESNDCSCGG
Sequence of Hck (P08631 whole entry, looked up): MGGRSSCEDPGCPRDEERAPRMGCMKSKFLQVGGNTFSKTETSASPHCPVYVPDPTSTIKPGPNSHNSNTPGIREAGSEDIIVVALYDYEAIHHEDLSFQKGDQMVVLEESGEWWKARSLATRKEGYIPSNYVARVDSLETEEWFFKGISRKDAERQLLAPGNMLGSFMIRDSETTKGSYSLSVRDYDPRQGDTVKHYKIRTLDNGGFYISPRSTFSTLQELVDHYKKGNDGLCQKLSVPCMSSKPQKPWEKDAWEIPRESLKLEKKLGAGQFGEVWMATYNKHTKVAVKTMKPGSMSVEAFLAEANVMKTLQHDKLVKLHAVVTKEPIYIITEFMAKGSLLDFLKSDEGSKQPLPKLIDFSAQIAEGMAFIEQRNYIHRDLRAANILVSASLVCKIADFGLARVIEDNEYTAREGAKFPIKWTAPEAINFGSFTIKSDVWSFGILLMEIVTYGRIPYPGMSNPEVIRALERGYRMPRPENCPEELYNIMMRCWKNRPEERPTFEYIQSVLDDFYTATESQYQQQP
Sequence of Fyn (P06241 whole entry, looked up): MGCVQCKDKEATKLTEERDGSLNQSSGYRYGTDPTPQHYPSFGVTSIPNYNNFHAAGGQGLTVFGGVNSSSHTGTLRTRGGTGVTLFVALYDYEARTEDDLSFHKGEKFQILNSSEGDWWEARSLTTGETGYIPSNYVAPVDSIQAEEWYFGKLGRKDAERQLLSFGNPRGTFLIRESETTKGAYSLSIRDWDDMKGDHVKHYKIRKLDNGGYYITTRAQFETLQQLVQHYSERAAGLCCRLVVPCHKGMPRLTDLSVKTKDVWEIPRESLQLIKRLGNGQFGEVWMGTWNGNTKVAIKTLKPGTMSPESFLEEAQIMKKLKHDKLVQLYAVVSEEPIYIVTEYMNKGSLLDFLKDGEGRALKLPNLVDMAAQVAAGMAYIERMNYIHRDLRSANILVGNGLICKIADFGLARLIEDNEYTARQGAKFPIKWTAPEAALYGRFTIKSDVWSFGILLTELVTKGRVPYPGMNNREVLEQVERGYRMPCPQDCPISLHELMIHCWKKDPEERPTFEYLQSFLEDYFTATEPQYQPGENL

| Sequence | phosphorylation enrichment (AncSZ) | phosphorylation enrichment (EPHB1) | phosphorylation enrichment (EPHB2) | phosphorylation enrichment (FGFR1) | phosphorylation enrichment (FGFR3) | phosphorylation enrichment (Fer (mouse)) | phosphorylation enrichment (Fes) | phosphorylation enrichment (Fyn) | phosphorylation enrichment (Hck) | phosphorylation enrichment (Jak2) | phosphorylation enrichment (MERTK) | phosphorylation enrichment (c-Abl (mouse)) | phosphorylation enrichment (c-Src) | SH2 binding enrichment (Grb2 SH2) | SH2 binding enrichment (SHP2-C SH2) | SH2 binding enrichment (c-Src SH2) |
| --- | --- | --- | --- | --- | --- | --- | --- | --- | --- | --- | --- | --- | --- | --- | --- | --- |
| ASMAKYFASEI [ACADSB_Y372_YF] | 0.721 | 0.484 | 0.436 | 0.709 | 0.781 | 0.449 | 0.842 | 0.504 | 0.384 | 0.817 | 0.416 | 0.474 | 0.35 | 0.75 | 0.677 | 0.497 |
| TVHCDYLNISH [TAF1L_Y1385_P1389S] | 1.1 | 1.55 | 0.634 | 2.38 | 1.69 | 0.546 | 1.04 | 0.451 | 0.562 | 1.29 | 0.373 | 0.663 | 0.588 | 1.17 | 0.58 | 0.567 |
| FRDALYKFMVD [PHEX_Y250_YF] | 1.15 | 0.768 | 0.602 | 0.626 | 0.962 | 0.676 | 1.37 | 0.525 | 0.559 | 1.23 | 0.763 | 0.834 | 0.582 | 0.897 | 0.956 | 0.77 |
| NNTFLYQLVFD [EXO1_Y284] | 1.35 | 5.34 | 4.11 | 1.65 | 1.72 | 4.67 | 1.21 | 1.7 | 2.58 | 1.14 | 5.99 | 0.684 | 2.28 | 1.44 | 1.15 | 1.14 |
| QCQLKYSETPF [SIX6OS1_Y129_Y125C] | 1.24 | 0.634 | 0.722 | 0.68 | 0.842 | 0.798 | 1.32 | 0.558 | 0.749 | 1.01 | 0.82 | 0.933 | 0.717 | 0.876 | 0.61 | 0.644 |
